In US20250367128A1, “BIODEGRADABLE LIPIDOIDS AND COMPOSITIONS AND METHODS OF USE THEREOF FOR LIVER TARGETED DELIVERY” (The Trustees of the University of Pennsylvania, priority 2022, published 2025):
Strand notation (5' to 3'): a small letter for the sugar, then the base; units joined by * are phosphorothioate-linked, units joined directly phosphodiester-linked; [ ] holds rarer units or linkages, { } end groups; capitals alone tell only the bases. [PACE] = phosphonoacetate internucleotide linkage; m = 2'-O-methyl; r = 2'-OH (RNA)

System: hPCSK9 exon 7
Test: In vitro validation of SpCas9 gRNA (plasmid transfection of cell line)
Format: cell-based, human
Details: data not shown
Excerpt: In this study, we perform pre-clinical gene editing studies using a PCSK9-hE7 mouse line having a humanized Pcsk9 gene. […] This allows for studies to use renucleic acids which can be directly translated to NHP or human. PCSK9 gene is a “safe harbor” for insertion of a gene therapy mini-gene. Previously, the SpCas9 gRNAs targeting hPCSK9 exon 7 was validated in vitro (plasmid transfection of cell line) with sgR1 yielded 32% indel formation (data not shown).

B1: sgR1: SpCas9 gRNA targeting hPCSK9 exon 7, SEQ ID NO: 1 (nucleic acid)
guide: mG*mA*mC*rCrArArCrUrUrUrGrGrCrCrGrCrUrGrUrGrGrUrUrUrUrArGrAmGmCmUmAmGmAmAmAmUmAmGmCrArArGrUrUrArArArArUrArArGrGrCrUrArGrUrCrCrGrUrUrArUrCrAmAmCmUmUmGmAmAmAmAmAmGmUmGmGmCmAmCmCmGmAmGmUmCmGmGmUmGmCmU[PACE]mU[PACE]mU[PACE]mU
Q: B1 was tested. Which indel formation did it give?
A: 32%
